Measured values from article doi:10.1101/2023.09.11.557288, “An explainable language model for antibody specificity prediction using curated influenza hemagglutinin antibodies” (bioRxiv, 2023).

Assays:
[1] = biological target: T1, mini-HA #4900 (Influenza A virus H1N1, designed stem …, stabilised); experiment: BLI; His-tagged antigen at 0.5 uM loaded on anti-Penta-HIS (HIS1K) biosensors, Fab in solution; room temperature; 1x PBS pH 7.4, 0.01% BSA, 0.002% Tween 20; 1:1 binding model; settings: both partners purified
T1 construct: also called H1 stem-based construct; HA stem-based construct without the HA head domain; not shown: 6xHis, C-terminal, kept

[2] = biological target: T2, H1N1 A/Solomon Islands/3/2006 (SI06) HA (Influenza A virus, A/Solomon …, UniProt A7Y8I1); experiment: as above; settings: both partners purified
T2 construct: also called HA from H1N1 A/Solomon Island/3/2006

B1: 310–18A5 Fab (Fab, V domains shown)
VH: QVQLMQSGTEVKKPGSSVRVSCKASGSTFNSDAISWVRQAPGQGLEWMGGILGMFRTVNYAQRFQGRVTITADELMSTAYMELSGLRFEDTAVYYCARGDGYKPNFLRYWGQGTLITVSS
VL: TLSLSPGERATLSCRASQSVSSTSLAWYQQKFGQAPRLLIYGASNRATGIPDRFSGSGSGTDFTLTISRLEPEDFAVYYCQQYGNSLTFGGGTKVEIK
In the case of B1, the Kd [1] is reported as 1 nM and the Kd [2] is reported as 0.2 nM.
